# Data taken from publication PMC3861474 (PLoS ONE, 2013).
# Assays:
# [1] = target: T1, NAGK‑FL25‑C + PII-ST‑V (Synechococcus elongatus, UniProt P0A3F4); test: FRET dissociation of PII - NAGK complex, […] nm ratio; assay type: binding; settings: 0.1 mM ATP, 20 mM MgCl2, pH 7.5, 100 nM proteins, 30 min; competitive with ATP; a ratio, not a concentration
# T1 construct: gene glnB; same FRET complex as P6 (Cerulean on NAGK C-terminus, Strep-tag and Venus on PII C-terminus), E. coli; compound site on PII; with Acetylglutamate kinase
# T1 sequence (P0A3F4 whole entry): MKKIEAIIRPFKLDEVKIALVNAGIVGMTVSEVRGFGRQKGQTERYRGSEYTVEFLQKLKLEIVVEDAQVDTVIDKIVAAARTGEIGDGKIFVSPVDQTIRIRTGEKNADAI
# T1 sequence (Q6V1L5 whole entry partner): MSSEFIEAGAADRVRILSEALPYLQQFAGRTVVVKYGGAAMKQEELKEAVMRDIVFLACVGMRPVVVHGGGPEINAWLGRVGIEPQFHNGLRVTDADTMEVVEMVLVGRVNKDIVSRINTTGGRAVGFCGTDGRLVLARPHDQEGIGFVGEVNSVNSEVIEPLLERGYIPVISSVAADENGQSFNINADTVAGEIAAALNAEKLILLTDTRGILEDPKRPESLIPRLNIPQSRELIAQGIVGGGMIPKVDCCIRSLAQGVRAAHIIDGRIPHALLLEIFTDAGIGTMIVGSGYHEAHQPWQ
# [2] = target: N-acetyl-L-glutamate kinase (NAGK), His-tagged wild type (Synechococcus elongatus) (UniProt Q6V1L5)
# Chain of N-acetyl-L-glutamate kinase (NAGK), His-tagged wild type (Synechococcus elongatus) (Q6V1L5 whole entry, the tested form may be a part): as the sequence (Q6V1L5 whole entry partner) above
# [3] = target: NAGK‑FL25‑C (NAGK fused by a flexible 25-residue linker to Cerulean) (Synechococcus elongatus) (UniProt Q6V1L5)
# Chain of NAGK‑FL25‑C (NAGK fused by a flexible 25-residue linker to Cerulean) (Synechococcus elongatus) (Q6V1L5 whole entry, the tested form may be a part): as the sequence (Q6V1L5 whole entry partner) above
# [4] = target: N-acetyl-L-glutamate kinase (NAGK), His-tagged wild type (Synechococcus elongatus) (UniProt Q6V1L5); remark: listed apart in the source
# [5] = target: NAGK‑FL25‑C (NAGK fused by a flexible 25-residue linker to Cerulean) (Synechococcus elongatus) (UniProt Q6V1L5); test: FRET or BRET; association kinetics: FRET ratio (525 nm / 475 nm emission) every 8 s, excitation 433 nm; NAGK-FL25-C preincubated at 37 °C, then PII-Venus variant added; 100 nM proteins; 0.1 mM ATP; ratio not background-subtracted (0.54 is the zero baseline)
# [6] = target: NAGK‑FL25‑C (NAGK fused by a flexible 25-residue linker to Cerulean) (Synechococcus elongatus) (UniProt Q6V1L5); remark: listed apart in the source
# [7] = target: NAGK‑FL25‑C (NAGK fused by a flexible 25-residue linker to Cerulean) (Synechococcus elongatus) (UniProt Q6V1L5); test: FRET or BRET; FRET ratio of NAGK-FL25-C + PII-ST-V after addition of 2-OG (0.8 and 1.6 mM, the highest concentrations); 0.1 mM ATP; background subtracted and normalised
# [8] = target: NAGK‑FL25‑C (NAGK fused by a flexible 25-residue linker to Cerulean) (Synechococcus elongatus) (UniProt Q6V1L5); test: FRET or BRET; FRET ratio of NAGK-FL25-C + PII-ST-V with ADP 0.25 to 8 mM and 0.1 mM ATP (ADP/ATP ratio about 80 for the maximal drop); background subtracted and normalised
Molecule,IC50 (ADP/ATP ratio) [1],Kcat of NAGK activity in the presence of PII (coupled NADH oxidation assay; NAGK-wt alone 38.8 s^-1) [2] [s⁻¹],Kcat/Km of NAGK activity in the presence of PII (NAGK-wt alone 1.2E+04) [2] [M⁻¹ s⁻¹],Kcat of NAGK activity in the presence of PII (NAGK-FL25-C alone 41.36 s^-1) [3] [s⁻¹],Kcat/Km of NAGK activity in the presence of PII (NAGK-FL25-C alone 1.4E+04) [3] [M⁻¹ s⁻¹],relief of NAGK from arginine inhibition by PII: fold increase of the IC50 of arginine in the enzyme assay [4] [times],maximum FRET ratio (525 nm / 475 nm; zero baseline 0.54) [5],Kcat of NAGK activity in the presence of PII (NAGK-wt alone 38.8 s^-1) [2] [s⁻¹],partial relief of NAGK from arginine inhibition by PII: fold increase of the IC50 of arginine in the enzyme assay [6] [times],steady state FRET level above background with 0.8 and 1.6 mM 2-OG [7] [%],FRET level above baseline at the maximal drop (ADP/ATP ratio of about 80) [8] [%]
Nc1ncnc2c1ncn2[C@@H]1O[C@H](COP(=O)(O)OP(=O)(O)O)[C@@H](O)[C@H]1O [ADP],~ 10 ADP/ATP ratio,–,–,–,–,–,–,–,–,–,–
"PII signal transduction protein, wild type (from UniProt P0A3F4 1-112) (natural protein)",–,119,180000,128,240000,25,–,–,–,–,–
"PII-E85A‑ST‑V (PII E85A, Strep-tag as linker, Venus) (from UniProt P0A3F4 1-112) (natural protein)",–,–,–,–,–,–,0.6,–,–,–,–
"PII-S49G‑ST‑V (PII S49G, Strep-tag as linker, Venus) (from UniProt P0A3F4 1-112) (natural protein)",–,–,190000,99.6,250000,–,0.8,96.8,8.5,–,–
"PII-ST‑V (PII, Strep-tag as linker, Venus) (from UniProt P0A3F4 1-112) (natural protein)",–,–,180000,134,210000,–,1.35,123,–,10,10
